The values that follow come from a protein production outcome set (Wang et al. 2014).

The series is described as follows: label from the status in PepcDB records.
As for “AASEAEYGKVSKAWTLHADGSQEYRSSMELTLFTHTAMNSTYGESFIVYNPDFQTLKIHSSYTRQKDGTIVKTPDNAFVEVLPRFAADAPAYNQLKEMVVVHTGLELGATIYLDYSIITKPGYYPALDINERLQETSPVKECKVSISVPEGTPLACGLYGSPVKAVEESHDGIKEVHWTLRNIPASSREAFQPKNREASPHLVASTYPSGKAALATLDKRLKESQGYESKTFAQFLTDKSGNEQEKVNIIRDHILNNLSTCPIPMAMTGYTVRDIDTVLRSAYGTPLEIAQLLNVMLNAAGIPSEVLAVYPGHLDTDACGLAAIQTLAVKATVDGKDQYLSASPLTNRGGLDKVVSLSGTSIEIETTPIQIKESRSVAISADQAKDGFAICVLPAISAGIDSWGMSALNSKRSNLFELPSLIREEVTYTVTPAEGMKLQTSTQEQVISKPFGKVTRTITPRGNTIEVVRTIELNKQQFTPAEYSDVRSLIHEWTNPDNRVLLFSL”, the protein production entry was “not failed”.
For “MTPETNETLKLIGSDKVQGTAVYGPDGEKIGSIERVMIEKVSGRVSYAVLSFGGFLGIGDDHYPLPWPALKYNVELGGYQVMVTVDQLERAPKYGPGSEWDWRGARKVDDYYGVALT” the value was “not failed”.
As to “MVQAWYMDESTADPRKPHRAQPDRPVSLEQLRTLGVLYWKLDADKYENDPELEKIRKMRNYSWMDIITICKDTLPNYEEKIKMFFEEHLHLDEEIRYILEGSGYFDVRDKEDKWIRISMEKGDMITLPAGIYHRFTLDEKNYVKAMRLFVGEPVWTPYNRPADHFDARVQYMSFLEGTA”, the protein production entry was “not failed”.
For “MSLRIGVIGLGRIGTIHAENLKMIDDAILYAISDVREDRLREMKEKLGVEKAYKDPHELIEDPNVDAVLVCSSTNTHSELVIACAKAKKHVFCEKPLSLNLADVDRMIEETKKADVILFTGFNRRFDRNFKKLKEAVENGTIGKPHVLRITSRDPAPPPLDYIRVSGGIFLDMTIHDFDMARYIMGEEVEEVFADGSVLVDEEIGKAGDVDTAVVVLRFKSGALGVIDNSRRAVYGYDQRIEVFGSKGRIFADNVRETTVVLTDEQGDRGSRYLYFFLERYRDSYLEELKTFIKNVKSGEPPAVSGEDGKMALLLGYAAKKSLEEKRSVKLEEVIGEGHHHHHH” the value was “not failed”; for “MASKEAHVSLARGEQSVKRIKEFDPGKDSFSVLLLGIDAREKNGETVDQARSDANVLVTFNRKEKTAKMLSIPRDAYVNIPGHGYDKFTHAHAYGGVDLTVKTVEEMLDIPVDYVVESNFTAFEDVVNELNGVKVTVKSDKVIQQIKKDTKGKVVLQKGTHTLDGEEALAYVRTRKADSDLLRGQRQMEVLSAIIDKSKSLSSIPAYDDIVDTMGQNLKMNLSLKDAIGLFPFITSLKSVESIQLTGYDYEPAGVYYFKLNQQKLQEVKKELQNDLGVLEHHHHHH”, “not failed”; for “MPTVKLTKNITIMTGSPNTLIYDNRVVIDLGGKNSSVDINAEVQLATHGHADHIAGLLKKDAKIRYLPKEDYWSLTLMGRRAMIYGCSSKDSDIFTFDYVKENIESIDIEVRTSEIEVIKLPGHTPGHSGYIVDNVLYAGDAFFGEKVLEGFSVPFYTDFWTALESLNKVKELAKSVNNIVISHGPVYTNKNKMVSILESNIIYAQNLIGKILDMLSNNELTVEEIVVKLKQDLTPSNVLLNSVVVRSILFGLENIEYNVSQKGLVFRRRVH”, “failed”.
In the case of “MVREGFDVTLVEARERGGLETSYANGGQLSYRYVAPLADSGVPAQALGWLLRNDAPLRLRPRLDPAQWRWLLGFLAACRGSLNRRNAAHLLRLALLSQRTLQDWREEDGLDGFDWRRNGKLVAFRQPASFARARQGLADPSAQFVLTAAECLALEPALSAAPFVGGIHTPDEEVADCHAFCVQLAERLQASGHCRQLHGRRVTKIVEGGAAVRGVEVGGDLIEADHVVLAAGYRSAELMLPGLRLPLYPLKGYSLTLPVGAQHRAPDTSITDYDRKIVYARIGERLRIAAMVDIVGFDPGLEPARLALLRQQARDTFPQGGDFDAAVEWAGMRPATPTGVPLVGNGGYRNLWLNLGHGALGFTLACGSGRLLAEQIGRRPPSIDTTGLLPRGALAG”, the protein production entry is “failed”.
With “QDKKEQFKQLFQIVEQSFGRPLSPYEIETLNQWIDVDHHDLSVIQAALDEALSQNKLSFKYIDRILLNWKKNNV” the entry was “not failed”; with “MHLETNMAGHSIPHFQNDGGHSVIEIGVKEFMCTGASVPFDHPHIFIDMGDDNEKVCSYCSTLYRYNPSLKAEQTNPPGCVFHVKAALEHHHHHH”, “not failed”.
Take “SDRKVAREFRHKVDFLIENDAEKDYLYDVLRMYHQTMDVAVLVGDLKLVINEPSRLPLFDAIRPLIPLKHQVEYDQLTPRRSRKLKEVRLDRLHPEGLGLSVRGGLEFGCGLFISHLIKGGQADSVGLQVGDEIVRINGYSISSCTHEEVINLIRTKKTVSIKVRHIGLIPVKSSPDEPLTWQYVDQFVSESGGVRGSLGSPGNRENKEKKVFISLVGSRGLGCSISSGPIQKPGIFISHVKPGSLSAEVGLEIGDQIVEVNGVDFSNLDHKEGRELFMTDRERLAEARQRELQRQELLMQKRLAMESNKILQEQQEMERQRRKEIAQKAAEENERYRKEMEQIVEEEEKFKKQWEEDWGSKEQLLLPKTITAEVHPVPLRKPKYDQGVEPELEPADDLDGGTEEQGEQDFRKYEEGFDPYSMFTPEQIMGKDVRLLRIKKEGSLDLALEGGVDSPIGKVVVSAVYERGAAERHGGIVKGDEIMAINGKIVTDYTLAEADAALQKAWNQGGDWIDLVVAVCPPKEYDDELTFF”: the protein production entry is recorded as “failed”.
With “MGHHHHHHSHMSHYRPELPAPRTDWSLSDVDQWDTAALADGIKSFLLALPAPLVTPEASAEARRALREAAGPVGPALEPPTLPLHRALTLRFLLQHLGRVARRAPALGPAVRALGATF” the entry was “failed”; with “MFKRCFSPLTLVNQLALIVMLSTAIGVAGMAVSGWLVQGVQGSAHAINKAGSLRMQSYRLLAAVPLDAKDQKLLDEMEQTAFSPELTRAAERDGQQKQLKALQDYWHNELSPRLQHAQNAHAVAEDITRFVAGLDRLVTSFDHTTELRIERVVLVHRVMAIFMALLLVFTIIWLRVRLLQPWKQLLSMARAVSQRDFTQRANISGRNEMAALGSALNNMSEELAESYAVLEQRVQEKTAGLEHKNQILSFLWQANRRLHSQAPLCERLSPVLNGLQNLTQLHDIELRVYDLEDEDNHQEFTCQSDISCDDKGCHLCPRSALPMINGGTTLKWRLTDSHTQYGILLATLPYGRHLSHDQQQLVDTLVEQLTATLALDRHQERQQRLIVMEERATIARELHDSIAQSLSCMKMQVSCLQMQGDALPESSRELLSQIRNELNCSWAQLRELLTTFRLQLTEPGLRPALEASCQEFSARFGFTVKLDYQLPPRLVPSHQAIHLLQIAREAPSNALKHSHADDVVVTVTQCGKQVKLKVQDNGCGVPENAERSNHYGMIIMRDRAQSLRGDCQVRRRETGGTEVTVTFIPETNFTETQGDTHE”, “failed”; with “MIISNKSPISINNDPWEAYNDILEHNQLTLSNIEFTTTNLCNMRCSHCAVGYTLQTKDPDPLPMDIIYRRLDEIPNLRTLSITGGEPMFSKKSIKNVVKPLLKYAKHRGIYVQMNSNLTLPQDRYLDIAEY”, “failed”.
For “MFMAKRYENMDNVSTKKSIRSFLRWRKERKQNKKDFSFLVEQSPVKQSAFLQSNVEKTTITWIGHSTFLIQTNGLNILTDPVWANKLKLVPRLTEPGLSIEALPKIDIVLISHGHYDHLDFSTLRQLNDDVLYLVPIGLKKLFTRKKFKHVEEYKWWESTIINEVSFHFVPSQHWTRRFLFDMNTSHWGGWIIDNETTMETIYFCGDSGYFQGFKEIGERFLIDIALMPIGAYEPEWFMKVSHVSPEEAVQAYLDLNATHFIPMHYGAFALADETPREAITRLRNNWNLRMLPWEQLHVLFLGQTFIYSNATNNKQIKEKIETLHV” the value was “failed”; for “MNKAITVIVWLLVSLCVLAIITMPVSLQTHLVATAISLILLATIKSFNGQGAWRLVALGFGTAIVLRYVYWRTTSTLPPVNQLENFIPGFLLYLAEMYSVVMLGLSLVIVSMPLPSRKTRPGSPDYRPTVDVFVPSYNEDAELLANTLAAAKNMDYPADRFTVWLLDDGGSVQKRNAANIVEAQAAQRRHEELKKLCEDLDVRYLTRERNVHAKAGNLNNGLAHSTGELVTVFDADHAPARDFLLETVGYFDEDPRLFLVQTPHFFVNPDPIERNLRTFETMPSENEMFYGIIQRGLDKWNGAFFCGSAAVLRREALQDSDGFSGVSITEDCETALALHSRGWNSVYVDKPLIAGLQPATFASFIGQRSRWAQGMMQILIFRQPLFKRGLSFTQRLCYMSSTLFWLFPFPRTIFLFAPLFYLFFDLQIFVASGGEFLAYTAAYMLVNLMMQNYLYGSFRWPWISELYEYVQTVHLLPAVVSVIFNPGKPTFKVTAKDESIAEARLSEISRPFFVIFALLLVAMAFAVWRIYSEPYKADVTLVVGGWNLLNLIFAGCALGVVSERGDKSASRRITVKRRCEVQLGGSDTWVPASIDNVSVHGLLINIFDSATNIEKGATAIVKVKPHSEGVPETMPLNVVRTVRGEGFVSIGCTFSPQRAVDHRLIADLIFANSEQWSEFQRVRRKNPGLIRGTAIFLAIALFQTQRGLYYLVRARRPAPKSAKPVGAVK”, “failed”.
For “MEWEVKEDGYSEEVSSLFLDHLPSKILEAKNRAEQLLTLQEKPILDIAEYNHAKVLAAFQEERVSTYHLQGTTGYGLGDSGRETLDRVMARILGTEAALVRGQFVSGTHAIATALFGVLRPGDHFISVTGDPYDTLEEVIGIRGTGQGSLKDFGVSYDSVPLSEEGTIQHSLVSQGIKPNTKMLILQRSRGYAWRNSLPMEQIAAFVAYVREHFPHLIIFVDNCYGELVEKCEPGDVGADLMAGSLIKNLGGSLAPTGGYIAGRQELVEKAACRLTAPGIGGEVGATLSWQLQFFQGLFFSPLTVSEAIRGAIFSAAFWQALGFEVNPLPDALRTDLIQAVKLNSREAMIAFCQGFQKGSPVDSHVLPIPSGMPGYEDEVIMAGGTFIQGATSEFSADGPMRDPFIAYQQGGVSMNYIKFGNLLAAQKLWEQGLLK”, the protein production result is given as “failed”.
For “KAEAEQNWWEGPPQDLSVHLWYAGPMERAGAESILANRSDGTFLVRQRVKDAAEFAISIKYNVEVKHIKIMTAEGLYRITEKKAFRGLTELVEFYQQNSLKDCFKSLDTTLQFPFKEPEKRTISR” the value was “not failed”; for “MKYCTLDDLILSFGQDEIYRLIATDQEAEKALDDAQAEIDMYLSDRYALPVKSVPKSLNRIACDIAHYYLYNSVDEDSTVYLRYKHRIKQLSDVAAGKLSLGLYDKSDDATTDNQVVFIKSSKKVFAR”, “not failed”; for “PDVSVQEMVSAYTTFVNKGIRVNPLPITRIEDQYGNVVAQFSPNMVEVLPPDAAYKMLYMLKSVVDGGTGSRLRYRYGFKLDMGGKTGTTQNNSD”, “failed”.
With “MGHHHHHHSHMIQYIPQRPPIVMISTLVSAEKNVTETELEIPAHGLFVKDGVLHEPGLIENVAQTAAAGVGYACTLTSQPVPVGFIGAVKNLEIDYLPKVGDVLETRVEVLEEIFDMTLIKGESFVKGKRVLTCEMKIVLKK” the entry was “failed”.
